From article PMC11797056, “The ATPase activity of yeast chromosome axis protein Hop1 affects the frequency of meiotic crossovers” (Nucleic Acids Research, 2024)

T1: Hop1 K65A,N67Q (Saccharomyces cerevisiae, UniProt P20050 1-605, K65A;N67Q)
T1 sequence: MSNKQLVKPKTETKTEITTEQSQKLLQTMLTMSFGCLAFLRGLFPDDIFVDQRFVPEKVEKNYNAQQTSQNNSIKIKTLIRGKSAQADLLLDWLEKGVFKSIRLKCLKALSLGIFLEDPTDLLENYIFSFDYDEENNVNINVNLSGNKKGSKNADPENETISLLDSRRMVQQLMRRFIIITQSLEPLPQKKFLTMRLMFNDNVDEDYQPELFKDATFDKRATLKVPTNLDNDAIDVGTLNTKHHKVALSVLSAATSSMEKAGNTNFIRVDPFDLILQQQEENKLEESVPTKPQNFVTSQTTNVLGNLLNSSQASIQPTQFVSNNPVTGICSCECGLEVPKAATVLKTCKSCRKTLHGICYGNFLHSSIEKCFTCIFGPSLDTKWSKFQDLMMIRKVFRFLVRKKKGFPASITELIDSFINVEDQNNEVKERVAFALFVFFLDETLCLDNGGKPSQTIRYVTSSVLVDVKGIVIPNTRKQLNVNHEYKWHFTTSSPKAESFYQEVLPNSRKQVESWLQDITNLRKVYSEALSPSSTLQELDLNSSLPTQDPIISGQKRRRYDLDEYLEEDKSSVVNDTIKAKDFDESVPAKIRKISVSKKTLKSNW

B1: Holliday junction (HJ), 6-FAM (structured_DNA)
DNA 1: GACGCTGCCGAATTCTACCAGTGCCTTGCTAGGACATCTTTGCCCACCTGCCGGTTCACCC
DNA 2: TGGGTGAACCTGCAGGTGGGCAAAGATGTCCTAGCAATGTAATCGTCAAAGCTTTATGCCGTT
DNA 3: CAACGGCATAAAGCTTGACGATTACATTGCTAGGACATGCTGTCTAGAGGATCCGACTATCGA
DNA 4: ATCGATAGTCGGATCCTCTAGACAGCATGTCCTAGCAAGGCACTGGTAGAATTCGGCAGCGT
B2: Holliday junction (HJ), 32P (structured_DNA)
DNA 1: GACGCTGCCGAATTCTACCAGTGCCTTGCTAGGACATCTTTGCCCACCTGCCGGTTCACCC
DNA 2: TGGGTGAACCTGCAGGTGGGCAAAGATGTCCTAGCAATGTAATCGTCAAAGCTTTATGCCGTT
DNA 3: CAACGGCATAAAGCTTGACGATTACATTGCTAGGACATGCTGTCTAGAGGATCCGACTATCGA
DNA 4: ATCGATAGTCGGATCCTCTAGACAGCATGTCCTAGCAAGGCACTGGTAGAATTCGGCAGCGT

Columns and labels:
Hop1 K65A,N67Q [1] = target: T1, Hop1 K65A,N67Q; test: MST; 25 nM HJ; EMSA: 25 mM HEPES pH 7.5, 0.5 nM 32P-HJ, 37 C 15 min, 8% PAGE in TBE (25 mM Tris base pH 8.0, 25 mM boric acid, 0.5 mM EDTA) at 4 C; MST: 25 nM 6-FAM HJ, buffer not in material; conditions: protein: recombinant; tags: His6 (pET28a); label: 5'-6FAM on HJ02; four-way junction of 4 strands
Hop1 K65A,N67Q [2] = target: T1, Hop1 K65A,N67Q; test: EMSA; 0.5 nM HJ; EMSA: 25 mM HEPES pH 7.5, 0.5 nM 32P-HJ, 37 C 15 min, 8% PAGE in TBE (25 mM Tris base pH 8.0, 25 mM boric acid, 0.5 mM EDTA) at 4 C; MST: 25 nM 6-FAM HJ, buffer not in material; conditions: protein: recombinant; tags: His6 (pET28a); label: 5'-32P on HJ02; four-way junction of 4 strands

Binder	Kd (Hop1 K65A,N67Q [1])	binding signal (Hop1 K65A,N67Q [2])
B1	495 nM	–
B2	–	~1.7 fold lower affinity than WT
